This assay deals with human VEGF165 protein (human). Put plainly: ELISA; plates coated with recombinant human PD-L1 or VEGF165 (100 ng/well, carbonate buffer); antibody 1 h at room temperature; detected with HRP goat anti-human Fc, TMB, 450 nm. Background: In an ELISA, binding on a coated surface is turned into a signal by an enzyme label.

This note sets out measurements from paper PMC8678608.

B1: HB0025 (anti-PD-L1/VEGFR1D2-Ig fusion protein) (bispecific antibody, V domains shown)
VH: QVQLVQSGAEVKKPGASVKVSCKASGYAFTGYTIHWVRQAPGQRLEWMGWFYPGSGTLKYSEKFQGRVTITRDKSLSTAYMELSSLRSEDTAVYYCARHGTGTLMAMDYWGQGTLVTVSS
VL: DVVMTQTPLSLSVTPGQPASISCKSSQSLANSYGNTYLSWYLHKPGQSPQLLIYGISNRFSGVPDRFSGSGSGTDFTLKISRVEAEDVGVYYCLQGTHQPPTFGQGTKLEIK
The EC50 is the concentration at which the effect is half-maximal. Take B1: the EC50 was determined as 0.48 nM.
